Reference: US20230287089A1 (FLAGSHIP PIONEERING INNOVATIONS VI, published 2023)
Where a chain is given by its changes, count along the chain named.

B1: Reference (VH of Reference fused to a c-Myc epitope tag, displayed on yeast) (VHH)
VHH: QVQLQESGGGLVQAGGSLRLSCAASGRTFSEYAMGWFRQAPGKEREFVATISWSGGSTYYTDSVKGRFTISRDNAKNTVYLQMNSLKPDDTAVYYCAAAGLGTVVSEWDYDYDYWGQGTQVTVSS
B2: AB-2 (VH of AB-2 fused to a c-Myc epitope tag, displayed on yeast) (VHH)
VHH: B1 VHH with W53Y, T103V, V104H
B3: AB-1 (VH of AB-1 fused to a c-Myc epitope tag, displayed on yeast) (VHH)
VHH: B1 VHH with T103V, V105L

Target: T1, SARS-CoV-2 receptor binding domain (RBD) antigen (SARS-CoV-2, UniProt P0DTC2 319-527)
T1 construct: also called SARS-COV-2 RBD; COV-2 RBD
Assay: yeast surface display, titration of biotinylated RBD, flow cytometry

Row | Binder | Kd [nM]
1 | B1 | 6
2 | B2 | 6.6
3 | B3 | 9.3

Target: T1, SARS-CoV-2 receptor binding domain …
Assay: not given

Row | Binder | EC50 (read off the curve) [nM]
4 | B1 | ~6
5 | B2 | ~6
6 | B3 | ~5
